# Measured values as given in PMC9884143 (The Journal of Biological Chemistry, 2023).
# B1: CoV2-YD-14 (VHH)
# VHH: QVQLVESGGGLVQAGGSLRLSCSASGNTFSTYSLSWYRQAPGKQREFVAAISSGGSTSYANSVKGRFSISRDNAKKTMYLQMNSLKPEDTAVYYCYVVTTLMDYWGQGTQVTVS
# B2: CoV2-YD-13 (VHH)
# VHH: QVQLVESGGGLVQAGGSLRLSCAASGFTFDDYAIGWFRQAPGKEREGVSCISSSGGFTNYADSVKGRFTISSDNAKNTVYLQMNSLKPEDTAVYYCAVVVNGYGLDEWAYDYWGQGTQVTVS
# B3: CoV2-YD-35 (VHH)
# VHH: DVQLVESGGGLVQAGDSLRLSCTASGRTFTTNAMGWFRQAPGKEREFVAAISWSYGTTYYSDPVEGRFTISRSNAKNTVYLQMNSLKPDDTAVYYCTLRSRFNAAAWTTEAAFDYWGQGTQVTVS
# B4: CoV2-YD-36 (VHH)
# VHH: QVQLVESGGGLVQAGDSLRLSCTASGRTFTTNAMGWFRQAPGKEREFVAAITWSYGTTYYSDPVEGRFTISRSNAKNTVYLQMNSLKPDDTAVYYCTLRSRFNAAAWTTEAAFDYWGQGTQVTVS
# B5: CoV2-YD-38 (VHH)
# VHH: DVQLVESGGGLVQAGDSLRLSCAASGRTFTTNAMGWFRQAPGKEREFVAAISWNSGTTYYSDPVKGRFTISRDNAKNTVYLQMNSLKPGDTAVYYCTLRSRFNAYAWTTENAFDYWGQGTQVTVS
# B6: CoV2-YD-37 (VHH)
# VHH: DVQLVESGGGLVQAGDSLRLSCTASGRTFTTNAMGWFRQAPGKEREFVAAISWNYDTTYYSDPVEGRFTISRSNAKNTVYLQMNSLKPDDTAVYYCTLRSRFNAAAWTTEAAFDYWGQGTQVTVS
# B7: CoV2-YD-11 (VHH)
# VHH: QVQLVESGGGLVQAGGSLRLSCVVSGTTFSRYDMGWYRQAPGKARETVATISRSGTTNYAYFVKGRFTITRDNAKNTVYLQMNSLKPEDTAVYYCYIFGLDYWGQGTQVTVS
# B8: CoV2-YD-5 (VHH)
# VHH: QVQLVESGGGLVQAGGSLRLSCVASGTTISTYNLLWFRQAPGQQREWVASISSGGDTSYAGSVKGRFTISRDNTENTMYLQMNSLKPEDTAVYYCHGANAAHGMDYWGKGTQVTVS
# B9: Rescue-1 (VHH)
# VHH: DVQLVESGGGLVQAGDSLRLSCTASGRTFTTNAMGWFRQAPGKEREFVAAITWSYGTTYYSDPVEGRFTISRDNAKNTVYLQMNSLKPEDTAVYYCFYERLAWDTSTYWGQGTQVTVS
# B10: Rescue-2 (VHH)
# VHH: DVQLVESGGGLVQAGDSLRLSCTASGRTFTTNAMGWFRQAPGKEREFVAAISWNYDTTYYSDPVEGRFTISRDNAKNTVYLQMNSLKPEDTAVYYCFYERLAWDTSTYWGQGTQVTVS
# B11: Rescue-3 (VHH)
# VHH: DVQLVESGGGLVQAGDSLRLSCTASGRTFTTNAMGWFRQAPGKEREFVAAISWNSGTTYYSDPVKGRFTISRDNAKNTVYLQMNSLKPEDTAVYYCFYERLAWDTSTYWGQGTQVTVS
# B12: CoV2-YD-12 (VHH)
# VHH: QVQLVESGGGLVQAGGSLRLSCAASGSTFSRLNILWWRQAAGKPREWVATSTDGGTRNYAAAVKGRFTISRDNAKNTVYLQMNSLKPEDTAVYYCYTPDYWGQGTQVTVS
# B13: CoV2-YD-10 (VHH)
# VHH: QVQLVESGGDLVQPGGSLRLSCAASGFTFSTYDMGWFRQGPGKEREFVAQIAPNGITTYYADSVKGRFTISRDNAKRMVFLQMNSLKPEDTAVYFCAVDLAPWGSLKLRTNPARGQGTQVTVS
# Target: T1, SARS-CoV-2 Spike receptor-binding domain (RBD), original strain (SARS-CoV-2, original strain, UniProt P0DTC2)
# Assay: not given
# Conditions: not given
row,Binder,Kd [nM]
1,B1,0.152
2,B2,2.43
3,B3,0.14
4,B4,0.154
5,B5,0.561
6,B6,0.411
7,B7,0.179
8,B8,0.114
9,B9,50.9
10,B10,26.8
11,B11,24.9
12,B12,0.145

# Target: T1, SARS-CoV-2 Spike receptor-binding …
# Assay: SPR
# Conditions: both partners purified
row,Binder,binding result
1,B13,binds
